Reference: patent publication US20210171652A1 (University of Pennsylvania, published 2021)
Positions count from the first letter of the chain named.

B1: KP2-09 Fab/phage clone (anti-Band 3, Wrb) (Fab, V domains shown)
VH: EVQLLESGPGLVRPSETLSLTCAVSGYSISSGYGWHWIRQPPGKGLESLGYIGGSRGNTNYNPSLKSRVTISTDTSKNQFSLKLRSVTAADTAVYYCARDSGYNTRYFDYWGQGVLVTVSS
VL: AAELTQSPATLSLSPGERATLSCRASQSVGSRLAWYQQKPGQAPRLLIYGASSRATGIPDRFSGSGSRTDFTLTISSLEPEDVGVYHCQQYNDLLPLTFGGGTKVEIK
B2: KP2-11 Fab/phage clone (anti-Band 3, Wrb) (Fab, V domains shown)
VH: EVQLQLPGPGLVKPSETLSLTCTVSGSSLSSAYGWNWIRQPPGKGLEWIGSIGGSRDNTNYNPSLKRRVTISKDTSKNQFSLKLKSVTAADTAVYYCAQRGAYGYSYFDYWGQGVLVAVSS
VL: B1 VL with A1E, A2L, E3T, R18T, V29L, A43P, S53T, L94F, L95P
B3: KP3-08 Fab/phage clone (anti-Band 3, Wrb) (Fab, V domains shown)
VH: B2 VH with Q5L, L6E, P7S
VL: ELTLTQSPATLSLSPGETATLSCRASQSLGGRLAWYQQKPGQAPRLLIYGASTRATGIPDRFSGSGSRTEFTLTIAGLEPEDVGVYHCQQYNDFLPLTFGGGTKVEIK
B4: KP3-02 Fab/phage clone (anti-Band 3, Wrb) (Fab, V domains shown)
VH: B1 VH
VL: B1 VL with R18T, R32N, R45K, I48V, Y49H, G50S, S52Y, S53F
B5: KP2-01 Fab/phage clone (anti-Band 3, Wrb) (Fab, V domains shown)
VH: EVQLLESGPGLVKPSETLSLTCAVSGDSISSGLGWSWIRQTPGKGLEWIGYIGGSRGNTNYNPSFKSRVTISRDTSKNQFSLRLSSMTAADTAVYYCARRAPYWGYSYLDYWGQGVLVTVSS
VL: AAELTQSPATLSLSPGETATLSCRASQSIGSSLAWYQQRPGQAPKLLVHSAYFRAAGIPDRFSGSGSRTDFTLTISSLEPEDVGVYHCQQYNDLLPLTFGGGTKVELK
B6: KP2-08 Fab/phage clone (anti-Band 3, Wrb) (Fab, V domains shown)
VH: EVQLLESGPGLVKPSETLSLTCAVSGYSISSGYGWNWIRQPPGKGLEWIGSIGGSRDNTNYNPSLKSRVTLSKDTSKNHFSLRLRSVTAADTAVYYCARDGGYGSRYMDSWGQGVLVAVSS
VL: B5 VL with T18A, S31T, R39K, K45R, A56T, P59A, H87Y, L107I
B7: KP2-14 Fab/phage clone (anti-Band 3, Wrb) (Fab, V domains shown)
VH: EVQLLESGPGLVKPSETLSLTCAVSGSSLSSAYGWNWIRQAPGKRLEWIGFIGGSRDNTNYNPSLRSRVTISKDTSKNHFSLKLTSVTAADTAVYFCARRGAFGNSYFDYWGQGVPVTVSS
VL: B1 VL with R18T, Q27E, R32S, Q37H, I48V, Y49H, G50S, S53F, D70E, I75V
B8: KP2-02 Fab/phage clone (anti-Band 3, Wrb) (Fab, V domains shown)
VH: EVQLLESGPGLVKPSETLSLTCAVSGGSLSGGYDWSWIRQSSRKGLEWIGYIYDSRWTTNYNPSLKKRVTISIDTSKNQFSLNLKSVTAADTAVYYCARRGGYGASYFDLWGQGVLVTVSS
VL: B5 VL with S14F, S32H, R39K, A51V, Y52S, A56T, S63R, L107I
B9: KP2-04 Fab/phage clone (anti-Band 3, Wrb) (Fab, V domains shown)
VH: EVQLLESGPGLVKPSETLSLTCAVSGYSLSSAYGWNWIRQSPGKGLEWIGSIGGSRDNVNYNPSLKRRVTISKDTSTNHFSLRLSSVTAADTAVYYCVRRATYGNSYFDSWGQGVQVTVSS
VL: B5 VL with A1E, A2L, E3T, I29V, S32H, R39K, A56T, L107I
B10: KP3-05 Fab/phage clone (anti-Band 3, Wrb) (Fab, V domains shown)
VH: B2 VH with Q5L, L6E, P7S
VL: B5 VL with I29V, R39K, A56T, Q89H, L107I
B11: KP2-07 Fab/phage clone (anti-Band 3, Wrb) (Fab, V domains shown)
VH: EVQLLESGPGLVKPSETLSLTCAVSGDSISSGYGWHWIRQVPGRGLEWIGSIGGSRGTTNYNPSLKSRVTISEDTSKNQFSLSLRSVSAADTAVYFCARDSGYSFRYFDFWGQGVLVTVSS
VL: B5 VL with A1E, A2L, E3V, L4M, I29V, S32N, R39K, A56T, L107I, K108N
B12: KP3-16 Fab/phage clone (anti-Band 3, Wrb) (Fab, V domains shown)
VH: B2 VH with Q5L, L6E, P7S
VL: B1 VL with R18T, V29L, S53T, L94F
B13: KP3-18 Fab/phage clone (anti-Band 3, Wrb) (Fab, V domains shown)
VH: B9 VH with S7W
VL: B5 VL with A1E, A2L, E3T, I29V, S32Y, R39K, Y52H, A56T, L107I
B14: KP3-13 Fab/phage clone (anti-Band 3, Wrb) (Fab, V domains shown)
VH: B8 VH with K13R, S42P, W57G, K67R
VL: B1 VL with R18T, R32N, R45K, I48V, Y49H, G50S, S53V, L94F, L95F
B15: KP2-06 Fab/phage clone (anti-Band 3, Wrb) (Fab, V domains shown)
VH: B2 VH with Q5L, L6E, P7S
VL: B5 VL with I29V, R39K, A51I, Y52S, F53V, A56T, S76T, L94F, L95F, L107I
B16: KP3-15 Fab/phage clone (anti-Band 3, Wrb) (Fab, V domains shown)
VH: B2 VH with Q5L, L6E, P7S, S55N
VL: AAELTQSPATLSVSPGEAATLSCRASQTVGRNLAWYQQKPGQAPKLLVHSAHFRATGIPDRFSGSGSGTDFTLTISSLEPEDAGIYHCQQYNDLLPLTFGGGTKVEIK
B17: KP2-13 Fab/phage clone (anti-Band 3, Wrb) (Fab, V domains shown)
VH: EVQLLESGPGLVKPSETLSLTCAVSGGSISGGYDWSWIRQSPGKGLEWIGYIYDSRGTTNYNPSLRKRVAISIDTSRNQFSLNLRSLTAADTAVYYCARRAGYGSAYFDYWGQGVLVTVSS
VL: AAELTQSPATLSLAPGETATLSCRASQSIGTNLAWYHQKPGQPPKLLVHTAYVRATGIPNRFSGSGSRTDFTLTINSLQPEDVGVYHCQQYNDLLPLTFGGGTKIDIK
B18: KP2-15 Fab/phage clone (anti-Band 3, Wrb) (Fab, V domains shown)
VH: B17 VH with A70T, N83K
VL: B16 VL
B19: KP2-20 Fab/phage clone (anti-Band 3, Wrb) (Fab, V domains shown)
VH: B17 VH with A70T, N83K
VL: B1 VL with R18T, R32N, R45K, I48V, Y49H, G50S, A51G, S53V, T74I

Molecular target: T1, Band 3 / glycophorin A (Wright b, Wrb epitope) on human red blood cells (human, UniProt P02724 20-150)
T1 construct: whole, on cells; also called Band3/GPA; AE1
T1 sequence 1: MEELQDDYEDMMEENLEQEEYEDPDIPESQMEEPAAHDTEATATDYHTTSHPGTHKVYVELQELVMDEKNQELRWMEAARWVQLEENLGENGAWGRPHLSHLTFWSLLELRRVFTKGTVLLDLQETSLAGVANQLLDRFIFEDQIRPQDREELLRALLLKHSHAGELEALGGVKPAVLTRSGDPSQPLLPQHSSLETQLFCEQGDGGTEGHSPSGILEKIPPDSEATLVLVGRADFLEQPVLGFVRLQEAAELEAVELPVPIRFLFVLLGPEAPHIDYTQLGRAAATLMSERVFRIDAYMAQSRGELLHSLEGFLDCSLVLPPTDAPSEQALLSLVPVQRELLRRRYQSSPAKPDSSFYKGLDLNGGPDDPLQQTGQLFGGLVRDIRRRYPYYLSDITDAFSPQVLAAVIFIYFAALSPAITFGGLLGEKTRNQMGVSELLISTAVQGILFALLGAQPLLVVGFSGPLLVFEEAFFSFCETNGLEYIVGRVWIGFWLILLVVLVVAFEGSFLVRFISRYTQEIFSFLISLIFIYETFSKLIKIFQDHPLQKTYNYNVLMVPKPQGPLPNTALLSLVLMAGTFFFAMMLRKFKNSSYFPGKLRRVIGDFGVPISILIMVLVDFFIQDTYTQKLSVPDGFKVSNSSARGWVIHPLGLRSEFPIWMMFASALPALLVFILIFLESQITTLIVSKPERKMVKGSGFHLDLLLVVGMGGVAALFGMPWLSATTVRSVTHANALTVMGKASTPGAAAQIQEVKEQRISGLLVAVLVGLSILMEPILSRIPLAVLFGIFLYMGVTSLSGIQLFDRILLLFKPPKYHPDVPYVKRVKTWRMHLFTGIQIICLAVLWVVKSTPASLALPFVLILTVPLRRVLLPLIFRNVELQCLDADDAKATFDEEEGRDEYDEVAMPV
T1 sequence 2: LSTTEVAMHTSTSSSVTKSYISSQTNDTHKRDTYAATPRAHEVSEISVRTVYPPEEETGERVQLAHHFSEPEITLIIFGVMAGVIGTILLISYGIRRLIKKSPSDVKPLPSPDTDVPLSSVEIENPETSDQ
Experiment: Fab/phage binding assays on human RBCs incl. rare RBC types lacking conserved antigens
Procedure: An IgG Fab/phage display library was prepared from the peripheral blood lymphocytes of a hyperimmunized macaque using homologous human V-region oligonucleotides (Siegel D L, R. M., Lee H, Blancher A., Production of large repertories of macaque mAbs to human RBCs using phage display. Transfusion, 1999. 39(S10): p. 92S, which is incorporated herein by reference). Fab/phage specific for human RBCs were isolated by panning on intact human RBCs. Monoclonal Fab/phage were grown to produce antibodies for immunoassays and their corresponding DNA was extracted for sequencing. To identify target epitopes, antibodies were screened against RBCs of known serologic phenotypes, including rare cells lacking highly conserved antigens, using standard immunohematologic techniques (Roback, J. D., Technical Manual. 2014: American Association of Blood Banks (AABB), which is incorporated herein by reference.)
Using antibody phage display, we identified non-human-primate Fab antibody fragments to antigenic determinants on human RBCs. By panning phage libraries on human RBCs, we produced a Fab/phage preparation with >10⁷ RBC-specific clones capable of agglutinating human RBCs. By performing binding assays against rare RBC types lacking highly conserved antigens and epitopes, we identified the target antigens of >30 of these clones. At least 34 clones bound the Wright b (Wrb) epitope formed by a Band 3/GPA interaction, present on the RBCs of essentially 100% of the human population. The Wrb epitope, determined by the protein sequence of Band 3, is a site of association between Band 3 with GPA, and GPA expression is simultaneously required for its presence on the membrane (Huang C H, Reid M E, Xie S S, Blumenfeld 00. Human red blood cell Wright antigens: a genetic and evolutionary perspective on glycophorin A-band 3 interaction. Blood. 1996; 87(9):3942-3947). At least 3 other clones bound to a highly-conserved epitope Rh17(Hr0) on human RhCE protein, also present on essentially 100% of the human population. Both these targets are specific for erythroid lineage (Rojewski M T, Schrezenmeier H, Flegel W A. Tissue distribution of blood group membrane proteins beyond red cells: evidence from cDNA libraries. Transfus Apher Sci.

| Binder | binding result |
| --- | --- |
| B1 | binds |
| B2 | binds |
| B3 | binds |
| B4 | binds |
| B5 | binds |
| B6 | binds |
| B7 | binds |
| B8 | binds |
| B9 | binds |
| B10 | binds |
| B11 | binds |
| B12 | binds |
| B13 | binds |
| B14 | binds |
| B15 | binds |
| B16 | binds |
| B17 | binds |
| B18 | binds |
| B19 | binds |
